Assays:
MAGEA3 peptide no 1 = molecular target: T1, MAGEA3 peptide no 1; assay: peptide ELISA (coated 20mer)
T1 construct: also called MAGEA3 aa 1-20
T1 peptide: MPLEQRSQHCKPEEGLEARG
Description: (§1) 20mer peptides spanning the entire MAGEA3 protein with 10 aa overlaps shared by each adjacent peptide (Peptides&Elephants, Nuthetal, Germany) were used to coat Maxisorp ELISA plates (Nunc, Rochester, N.Y.). As control a 20mer peptide representing amino acids 40-21 from the NY-ESO-1 protein was used (rev). The numbering of amino acids of MAGEA3 is based on SEQ ID No:41.
(§2) Human recombinant antibody was used at a concentration of 1 μg/ml. Bound human antibody was detected using horseradish peroxidase-conjugated goat anti-human IgG Fc-gamma specific antibodies (Jackson ImmunoResearch, Europe Ltd., Cambridgeshire, UK).

MAGEA3 peptide no 10 = molecular target: T2, MAGEA3 peptide no 10; assay: peptide ELISA (coated 20mer)
T2 construct: also called MAGEA3 aa 91-110
T2 peptide: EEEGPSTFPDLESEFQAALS
Description: as §1, §2

MAGEA3 peptide no 11 = molecular target: T3, MAGEA3 peptide no 11; assay: peptide ELISA (coated 20mer)
T3 construct: also called MAGEA3 aa 101-120
T3 peptide: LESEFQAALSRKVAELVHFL
Description: as §1, §2

MAGEA3 peptide no 12 = molecular target: T4, MAGEA3 peptide no 12; assay: peptide ELISA (coated 20mer)
T4 construct: also called MAGEA3 aa 111-130
T4 peptide: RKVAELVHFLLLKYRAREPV
Description: as §1, §2

MAGEA3 peptide no 13 = molecular target: T5, MAGEA3 peptide no 13; assay: peptide ELISA (coated 20mer)
T5 construct: also called MAGEA3 aa 121-140
T5 peptide: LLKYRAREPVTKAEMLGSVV
Description: as §1, §2

MAGEA3 peptide no 14 = molecular target: T6, MAGEA3 peptide no 14; assay: peptide ELISA (coated 20mer)
T6 construct: also called MAGEA3 aa 131-150
T6 peptide: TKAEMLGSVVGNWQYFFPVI
Description: as §1, §2

MAGEA3 peptide no 15 = molecular target: T7, MAGEA3 peptide no 15; assay: peptide ELISA (coated 20mer)
T7 construct: also called MAGEA3 aa 141-160
T7 peptide: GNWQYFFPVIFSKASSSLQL
Description: as §1, §2

MAGEA3 peptide no 17 = molecular target: T8, MAGEA3 peptide no 17; assay: peptide ELISA (coated 20mer)
T8 construct: also called MAGEA3 aa 161-180
T8 peptide: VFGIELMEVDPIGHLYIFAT
Description: as §1, §2

MAGEA3 peptide no 18 = molecular target: T9, MAGEA3 peptide no 18; assay: peptide ELISA (coated 20mer)
T9 construct: also called MAGEA3 aa 171-190
T9 peptide: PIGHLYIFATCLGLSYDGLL
Description: as §1, §2

MAGEA3 peptide no 19 = molecular target: T10, MAGEA3 peptide no 19; assay: peptide ELISA (coated 20mer)
T10 construct: also called MAGEA3 aa 181-200
T10 peptide: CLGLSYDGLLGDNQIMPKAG
Description: as §1, §2

MAGEA3 peptide no 2 = molecular target: T11, MAGEA3 peptide no 2; assay: peptide ELISA (coated 20mer)
T11 construct: also called MAGEA3 aa 11-30
T11 peptide: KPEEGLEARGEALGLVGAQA
Description: as §1, §2

MAGEA3 peptide no 20 = molecular target: T12, MAGEA3 peptide no 20; assay: peptide ELISA (coated 20mer)
T12 construct: also called MAGEA3 aa 191-210
T12 peptide: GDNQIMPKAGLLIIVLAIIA
Description: as §1, §2

MAGEA3 peptide no 21 = molecular target: T13, MAGEA3 peptide no 21; assay: peptide ELISA (coated 20mer)
T13 construct: also called MAGEA3 aa 201-220
T13 peptide: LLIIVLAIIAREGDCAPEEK
Description: as §1, §2

MAGEA3 peptide no 22 = molecular target: T14, MAGEA3 peptide no 22; assay: peptide ELISA (coated 20mer)
T14 construct: also called MAGEA3 aa 211-230
T14 peptide: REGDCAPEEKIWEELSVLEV
Description: as §1, §2

MAGEA3 peptide no 25 = molecular target: T15, MAGEA3 peptide no 25; assay: peptide ELISA (coated 20mer)
T15 construct: also called MAGEA3 aa 241-260
T15 peptide: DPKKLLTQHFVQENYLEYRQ
Description: as §1, §2

MAGEA3 peptide no 26 = molecular target: T16, MAGEA3 peptide no 26; assay: peptide ELISA (coated 20mer)
T16 construct: also called MAGEA3 aa 251-270
T16 peptide: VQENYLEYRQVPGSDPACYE
Description: as §1, §2

MAGEA3 peptide no 27 = molecular target: T17, MAGEA3 peptide no 27; assay: peptide ELISA (coated 20mer)
T17 construct: also called MAGEA3 aa 261-280
T17 peptide: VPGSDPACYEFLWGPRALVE
Description: as §1, §2

MAGEA3 peptide no 28 = molecular target: T18, MAGEA3 peptide no 28; assay: peptide ELISA (coated 20mer)
T18 construct: also called MAGEA3 aa 271-290
T18 peptide: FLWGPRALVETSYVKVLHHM
Description: as §1, §2

MAGEA3 peptide no 29 = molecular target: T19, MAGEA3 peptide no 29; assay: peptide ELISA (coated 20mer)
T19 construct: also called MAGEA3 aa 281-300
T19 peptide: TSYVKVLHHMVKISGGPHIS
Description: as §1, §2

MAGEA3 peptide no 3 = molecular target: T20, MAGEA3 peptide no 3; assay: peptide ELISA (coated 20mer)
T20 construct: also called MAGEA3 aa 21-40
T20 peptide: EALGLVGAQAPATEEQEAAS
Description: as §1, §2

MAGEA3 peptide no 30 = molecular target: T21, MAGEA3 peptide no 30; assay: peptide ELISA (coated 20mer)
T21 construct: also called MAGEA3 aa 291-310
T21 peptide: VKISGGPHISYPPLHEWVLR
Description: as §1, §2

MAGEA3 peptide no 5 = molecular target: T22, MAGEA3 peptide no 5; assay: peptide ELISA (coated 20mer)
T22 construct: also called MAGEA3 aa 41-60
T22 peptide: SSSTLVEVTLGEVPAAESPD
Description: as §1, §2

MAGEA3 peptide no 6 = molecular target: T23, MAGEA3 peptide no 6; assay: peptide ELISA (coated 20mer)
T23 construct: also called MAGEA3 aa 51-70
T23 peptide: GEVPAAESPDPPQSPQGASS
Description: as §1, §2

MAGEA3 peptide no 9 = molecular target: T24, MAGEA3 peptide no 9; assay: peptide ELISA (coated 20mer)
T24 construct: also called MAGEA3 aa 81-100
T24 peptide: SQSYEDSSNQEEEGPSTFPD
Description: as §1, §2

MAGEA4 = molecular target: T25, MAGEA4 (UniProt P43358 1-317, limits assumed); assay: Western blot of recombinant protein, anti-human IgG-HRP
T25 construct: also called recombinant MAGEA4-protein; CT1.4
T25 sequence (looked up): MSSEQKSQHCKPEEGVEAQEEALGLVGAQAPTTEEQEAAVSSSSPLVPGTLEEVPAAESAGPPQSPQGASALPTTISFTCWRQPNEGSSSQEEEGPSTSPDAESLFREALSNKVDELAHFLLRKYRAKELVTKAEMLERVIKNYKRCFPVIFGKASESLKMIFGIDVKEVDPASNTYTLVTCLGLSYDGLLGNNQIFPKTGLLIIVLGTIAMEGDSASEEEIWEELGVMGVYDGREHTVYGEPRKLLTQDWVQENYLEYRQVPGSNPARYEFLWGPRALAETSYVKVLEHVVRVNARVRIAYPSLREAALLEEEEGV
Description: Recombinant MAGEA3- and recombinant MAGEA4-protein were separated in SDS-PAGE and blotted onto membranes. Membranes were incubated with human antibodies 122G3 or 32H2. Binding of human antibodies to proteins on the membrane was evaluated using an HRP-labeled goat anti human IgG (Jackson Immunoresearch, Milan Analytica AG, Rheinfelden, Switzerland). The results are depicted in FIG. 3.

MAGEA3 peptide no 24 = molecular target: T26, MAGEA3 peptide no 24; assay: ELISA on plate-coated 20mer peptide, antibody at 1 µg/ml, anti-human IgG Fc-HRP
T26 construct: also called MAGEA3 aa 231-250
T26 peptide: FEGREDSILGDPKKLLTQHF
Description: as §1, §2

MAGEA3 peptide no 7 = molecular target: T27, MAGEA3 peptide no 7; assay: as above
T27 construct: also called MAGEA3 aa 61-80
T27 peptide: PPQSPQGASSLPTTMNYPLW
Description: as §1, §2

MAGEA3 peptide no 8 = molecular target: T28, MAGEA3 peptide no 8; assay: as above
T28 construct: also called MAGEA3 aa 71-90
T28 peptide: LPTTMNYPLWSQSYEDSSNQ
Description: as §1, §2

MAGEA3 = molecular target: T29, MAGEA3 (human, UniProt P43357 1-314); assay: ELISA, plate coated with recombinant MAGEA3, serial dilution of antibody
T29 construct: also called recombinant MAGEA3; MAGEA3-protein

B1: 122G3 (antibody, V domains shown)
VH: QVQLVQSGAEVKKPGASVKVSCKASGYTFTNYAIHWVRQAPGQRLEWMGWINAGKGNTKYSQKFQGRVTITRDTSADTTYMELSSLRSEDTAVYFCAQAGLSSGLYRDYWGQGTPVTVSS
VL: EIVMTQSPATLSVSPGERATLSCRASQSVSSDLAWYQQKRGQAPRLLIYGASTRATGIPARFSGSGSGTEFTLTISSLQSEDFAVYWCQQYNDWPLTFGGGTKVEIN
notes: Patient-derived human antibody made recombinantly; also called human monoclonal antibody 122G3
B1: no binding (tested: 1 µg/ml) (MAGEA3 peptide no 1); no binding (tested: 1 µg/ml) (MAGEA3 peptide no 10); no binding (tested: 1 µg/ml) (MAGEA3 peptide no 11). B1: no binding (tested: 1 µg/ml) (MAGEA3 peptide no 12); no binding (tested: 1 µg/ml) (MAGEA3 peptide no 13); no binding (tested: 1 µg/ml) (MAGEA3 peptide no 14). B1: no binding (tested: 1 µg/ml) (MAGEA3 peptide no 15); no binding (tested: 1 µg/ml) (MAGEA3 peptide no 17); no binding (tested: 1 µg/ml) (MAGEA3 peptide no 18). B1: no binding (tested: 1 µg/ml) (MAGEA3 peptide no 19); no binding (tested: 1 µg/ml) (MAGEA3 peptide no 2); no binding (tested: 1 µg/ml) (MAGEA3 peptide no 20). B1: no binding (tested: 1 µg/ml) (MAGEA3 peptide no 21); no binding (tested: 1 µg/ml) (MAGEA3 peptide no 22); no binding (tested: 1 µg/ml) (MAGEA3 peptide no 25). B1: no binding (tested: 1 µg/ml) (MAGEA3 peptide no 26); no binding (tested: 1 µg/ml) (MAGEA3 peptide no 27); no binding (tested: 1 µg/ml) (MAGEA3 peptide no 28). B1: no binding (tested: 1 µg/ml) (MAGEA3 peptide no 29); no binding (tested: 1 µg/ml) (MAGEA3 peptide no 3); no binding (tested: 1 µg/ml) (MAGEA3 peptide no 30). B1: no binding (tested: 1 µg/ml) (MAGEA3 peptide no 5); no binding (tested: 1 µg/ml) (MAGEA3 peptide no 6); no binding (tested: 1 µg/ml) (MAGEA3 peptide no 9). B1: no binding (MAGEA4); binds (MAGEA3 peptide no 24); binds (MAGEA3 peptide no 7). For the same binder, the binding result (MAGEA3 peptide no 8) was “binds”, the EC50 (MAGEA3) was 0.023 nM and the “EC50 (read off the curve)” value (MAGEA3) was roughly 0.02 nM.
